# From patent US20250076311A1 (Chugai, published 2025)
# T1: human FcγRIIb extracellular domain with C-terminal His-tag (human, UniProt P31994 43-217)
# T1 construct: also called human FcgRIIb; not shown: His-tag added to the C-terminus
# T1 sequence: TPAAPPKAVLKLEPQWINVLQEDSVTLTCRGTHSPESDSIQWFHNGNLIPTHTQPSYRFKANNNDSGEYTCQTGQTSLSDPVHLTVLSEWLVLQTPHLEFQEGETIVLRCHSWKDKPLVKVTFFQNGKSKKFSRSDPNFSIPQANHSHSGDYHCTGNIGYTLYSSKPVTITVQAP
# T2: cynomolgus monkey FcγRIIa3 extracellular domain with C-terminal His-tag (cynomolgus monkey)
# T2 construct: also called cyno FcgRIIa3; cynoFcγRIIa3; not shown: His-tag added to the C-terminus
# T2 chain: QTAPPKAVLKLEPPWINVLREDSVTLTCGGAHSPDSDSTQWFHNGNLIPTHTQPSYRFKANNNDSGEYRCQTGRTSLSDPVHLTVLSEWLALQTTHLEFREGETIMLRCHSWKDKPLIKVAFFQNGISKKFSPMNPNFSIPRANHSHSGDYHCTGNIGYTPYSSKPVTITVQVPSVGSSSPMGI
# T3: cynomolgus monkey FcγRIIa1 extracellular domain with C-terminal His-tag (cynomolgus monkey)
# T3 construct: also called cyno FcgRIIa1; cynoFcγRIIa1; not shown: His-tag added to the C-terminus
# T3 chain: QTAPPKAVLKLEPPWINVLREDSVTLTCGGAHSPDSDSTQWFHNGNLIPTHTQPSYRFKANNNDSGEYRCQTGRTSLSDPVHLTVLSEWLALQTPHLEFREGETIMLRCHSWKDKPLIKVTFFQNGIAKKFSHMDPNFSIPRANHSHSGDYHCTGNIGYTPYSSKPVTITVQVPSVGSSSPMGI
# T4: cynomolgus monkey FcγRIIIaS extracellular domain with C-terminal His-tag (cynomolgus monkey, UniProt Q8SPW2 21-206 at identity 1.00))
# T4 construct: also called cyno FcγRIIIaS; FcgRIIIaS
# T4 chain: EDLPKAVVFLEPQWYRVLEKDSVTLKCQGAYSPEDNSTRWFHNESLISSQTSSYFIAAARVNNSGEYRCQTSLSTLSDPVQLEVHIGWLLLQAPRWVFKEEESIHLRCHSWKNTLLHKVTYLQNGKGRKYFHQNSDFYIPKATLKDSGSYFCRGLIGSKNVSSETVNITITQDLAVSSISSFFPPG
# T5: cynomolgus monkey FcγRIIa3 extracellular domain with C-terminal His-tag (cynomolgus monkey)
# T5 construct: also called cyno FcγRIIa3; FcgRIIa3
# T5 chain: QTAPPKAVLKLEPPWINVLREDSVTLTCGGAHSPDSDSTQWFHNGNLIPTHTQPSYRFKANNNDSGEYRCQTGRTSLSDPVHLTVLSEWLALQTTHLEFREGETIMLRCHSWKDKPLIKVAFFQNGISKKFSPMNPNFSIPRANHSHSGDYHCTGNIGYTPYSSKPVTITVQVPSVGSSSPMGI
# T6: human FcγRIIaR extracellular domain with C-terminal His-tag (human, UniProt P12318 34-217)
# T6 construct: also called human FcγRIIa (type R); FcgRIIaR
# T6 chain: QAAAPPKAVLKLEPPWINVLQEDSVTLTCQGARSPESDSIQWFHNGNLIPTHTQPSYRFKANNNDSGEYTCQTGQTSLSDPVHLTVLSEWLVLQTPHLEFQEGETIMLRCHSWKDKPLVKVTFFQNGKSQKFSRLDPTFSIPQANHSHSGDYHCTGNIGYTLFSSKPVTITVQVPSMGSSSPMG
# Columns and labels:
# [1] = target: T1, human FcγRIIb extracellular domain with …; assay: SPR (BIACORE), antibody captured, FcgR analyte
# [2] = target: T7, cynomolgus monkey FcγRIIIaS extracellular domain with C-terminal His-tag (cynomolgus monkey, UniProt A3RFZ7 21-206 (rhesus entry)); assay: SPR (BIACORE), antibody captured, FcgR analyte
# T7 construct: also called cyno FcgRIIIaS; cynoFcγRIIIaS; not shown: His-tag added to the C-terminus
# [3] = target: T2, cynomolgus monkey FcγRIIa3 …; assay: SPR (BIACORE), antibody captured, FcgR analyte
# [4] = target: T3, cynomolgus monkey FcγRIIa1 …; assay: SPR (BIACORE), antibody captured, FcgR analyte
# [5] = target: T4, cynomolgus monkey FcγRIIIaS …; assay: SPR; KD of SG1 / KD of variant
# Protocol: (§1) The kinetic analysis of interactions between these antibodies and FcγR was carried out using BIACORE® T200 or BIACORE® 4000 (GE Healthcare). HBS-EP+ (GE Healthcare) was used as the running buffer, and the measurement temperature was set to 25° C. […] After the measurement, the antibody captured on the chip was washed off by allowing reaction with 10 mM glycine-HCl, pH1.5 and 25 mM NaOH so that the chip was regenerated and used repeatedly. The sensorgrams obtained as measurement results were analyzed by the 1:1 Langmuir binding model using the BIACORE® Evaluation Software to calculate the binding rate constant ka (L/mol/s) and dissociation rate constant kd (1/s), and the dissociation constant KD (mol/L) was calculated from these values. […] Regarding such interactions, KD values were calculated using the following 1:1 binding model described in BIACORE® T100 Software Handbook BR1006-48 Edition AE.
# [6] = target: T5, cynomolgus monkey FcγRIIa3 …; assay: SPR; KD of SG1 / KD of variant
# Protocol: as §1
# [7] = target: T6, human FcγRIIaR extracellular domain …; assay: SPR; KD of SG1 / KD of variant
# Protocol: as §1
Binder,KD fold (SG1 = 1) [5],KD fold (SG1 = 1) [6],further results
"M103205H795-MY206/M103202L889-SK1 (antibody, human IgG1, kappa, name in EU numbering, Fc variant of MS1032LO06-SG1; positions in EU numbering) heavy: QVTLKESGPVLVKPTETLTLTCTVSGIDLSHDDISWVRQAPGKGLEWVGIISYAGSTYYASWAKGRLTISKDTSKNQVVLTMTNMDPVDTATYYCARGVPAYSHGGDLWGQGTLVTVSSASTKGPSVFPLAPSSKSTSGGTAALGCLVKDYFPEPVTVSWNSGALTSGVHTFPAVLQSSGLYSLSSVVTVPSSSLGTQTYICNVNHKPSNTKVDKKVEPKSCDKTHTCPPCPAPELLNGPVVFLFPPKPKDTLMISRTPEVTCVVVDVSDEDPEVKFNWYVDGVEVHNAKTKPREELYNSTYRVVSVLTVLHQDWLNGKEYKCKVSNKALPKPIEKTISKAKGQPREPQVYTLPPSREEMTKNQVSLTCLVKGFYPSDIAVEWESNGQPENNYKTTPPVLDSDGSFFLYSKLTVDKSRWQQGNVFSCSVMHEALHNHYTQKSLSLSP light: DIVMTQSPATLSLSPGERATLSCTSSQSVYHANWLSWFQQKPGQPPKLLIYWASTLAYGVPSRFSGSGSGTDFTLTISSLQPEDAATYYCAGGYGGGRYAFGQGTKVEIKRTVAAPSVFIFPPSDEQLKSGTASVVCLLNNFYPREAKVQWKVDNALQSGNSQESVTEQDSKDSTYSLSSTLTLSKADYEKHKVYACEVTHQGLSSPVTKSFNRGEC",–,–,Kd [1]: 900 nM; Kd [2]: 3500 nM; Kd [3]: 3000 nM; Kd [4]: 810 nM
"M103205H795-MY227 (heavy chain) with M103202L889-SK1 (light chain) (antibody, human IgG1, kappa, name in EU numbering, Substitutions introduced into M103205H795-SG1; positions in EU numbering) heavy: QVTLKESGPVLVKPTETLTLTCTVSGIDLSHDDISWVRQAPGKGLEWVGIISYAGSTYYASWAKGRLTISKDTSKNQVVLTMTNMDPVDTATYYCARGVPAYSHGGDLWGQGTLVTVSSASTKGPSVFPLAPSSKSTSGGTAALGCLVKDYFPEPVTVSWNSGALTSGVHTFPAVLQSSGLYSLSSVVTVPSSSLGTQTYICNVNHKPSNTKVDKKVEPKSCDKTHTCPPCPAPELLGYPSVFLFPPKPKDTLMISRTPEVTCVVVDVSDEDPEVKFNWYVDGVEVHNAKTKPREEQYNSTYRVVSVLTVLHQDWLNGKEYKCKVSNKALPKPIEKTISKAKGQPREPQVYTLPPSREEMTKNQVSLTCLVKGFYPSDIAVEWESNGQPENNYKTTPKVLDSDGSFFLYSKLTVDKSRWQQGNVFSCSVMHEALHNHYTQKSLSLSP light: DIVMTQSPATLSLSPGERATLSCTSSQSVYHANWLSWFQQKPGQPPKLLIYWASTLAYGVPSRFSGSGSGTDFTLTISSLQPEDAATYYCAGGYGGGRYAFGQGTKVEIKRTVAAPSVFIFPPSDEQLKSGTASVVCLLNNFYPREAKVQWKVDNALQSGNSQESVTEQDSKDSTYSLSSTLTLSKADYEKHKVYACEVTHQGLSSPVTKSFNRGEC",0.09 fold,6.8 fold,–
"M103205H795-MY280 (heavy chain) with M103202L889-SK1 (light chain) (antibody, human IgG1, kappa, name in EU numbering, Substitutions introduced into M103205H795-SG1; positions in EU numbering) heavy: QVTLKESGPVLVKPTETLTLTCTVSGIDLSHDDISWVRQAPGKGLEWVGIISYAGSTYYASWAKGRLTISKDTSKNQVVLTMTNMDPVDTATYYCARGVPAYSHGGDLWGQGTLVTVSSASTKGPSVFPLAPSSKSTSGGTAALGCLVKDYFPEPVTVSWNSGALTSGVHTFPAVLQSSGLYSLSSVVTVPSSSLGTQTYICNVNHKPSNTKVDKKVEPKSCDKTHTCPPCPAPELLVGPSVFLFPPKPKDTLMISRTPEVTCVVVDVSDEDPEVKFNWYVDGVEVHNAKTKPREELYNSTYRVVSVLTVLHQDWLNGKEYKCKVSNKALPKPIEKTISKAKGQPREPQVYTLPPSREEMTKNQVSLTCLVKGFYPSDIAVEWESNGQPENNYKTTPPVLDSDGSFFLYSKLTVDKSRWQQGNVFSCSVMHEALHNHYTQKSLSLSP light: DIVMTQSPATLSLSPGERATLSCTSSQSVYHANWLSWFQQKPGQPPKLLIYWASTLAYGVPSRFSGSGSGTDFTLTISSLQPEDAATYYCAGGYGGGRYAFGQGTKVEIKRTVAAPSVFIFPPSDEQLKSGTASVVCLLNNFYPREAKVQWKVDNALQSGNSQESVTEQDSKDSTYSLSSTLTLSKADYEKHKVYACEVTHQGLSSPVTKSFNRGEC",0.2 fold,3.7 fold,–
"M103205H795-MY321 (heavy chain) with M103202L889-SK1 (light chain) (antibody, human IgG1, kappa, name in EU numbering, Substitutions introduced into M103205H795-SG1; positions in EU numbering) heavy: QVTLKESGPVLVKPTETLTLTCTVSGIDLSHDDISWVRQAPGKGLEWVGIISYAGSTYYASWAKGRLTISKDTSKNQVVLTMTNMDPVDTATYYCARGVPAYSHGGDLWGQGTLVTVSSASTKGPSVFPLAPSSKSTSGGTAALGCLVKDYFPEPVTVSWNSGALTSGVHTFPAVLQSSGLYSLSSVVTVPSSSLGTQTYICNVNHKPSNTKVDKKVEPKSCDKTHTCPPCPAPELLHGPSVFLFPPKPKDTLMISRTPEVTCVVVDVSDEDPEVKFNWYVDGVEVHNAKTKPREEQYNSTYRVVSVLTVLHQDWLNGKEYKCKVSNKALPKPIEKTISKAKGQPREPQVYTLPPSREEMTKNQVSLTCLVKGFYPSDIAVEWESNGQPENNYKTTPMVLDSDGSFFLYSKLTVDKSRWQQGNVFSCSVMHEALHNHYTQKSLSLSP light: DIVMTQSPATLSLSPGERATLSCTSSQSVYHANWLSWFQQKPGQPPKLLIYWASTLAYGVPSRFSGSGSGTDFTLTISSLQPEDAATYYCAGGYGGGRYAFGQGTKVEIKRTVAAPSVFIFPPSDEQLKSGTASVVCLLNNFYPREAKVQWKVDNALQSGNSQESVTEQDSKDSTYSLSSTLTLSKADYEKHKVYACEVTHQGLSSPVTKSFNRGEC",–,5.9 fold,–
"M103205H795-MY229 (heavy chain) with M103202L889-SK1 (light chain) (antibody, human IgG1, kappa, name in EU numbering, Substitutions introduced into M103205H795-SG1; positions in EU numbering) heavy: QVTLKESGPVLVKPTETLTLTCTVSGIDLSHDDISWVRQAPGKGLEWVGIISYAGSTYYASWAKGRLTISKDTSKNQVVLTMTNMDPVDTATYYCARGVPAYSHGGDLWGQGTLVTVSSASTKGPSVFPLAPSSKSTSGGTAALGCLVKDYFPEPVTVSWNSGALTSGVHTFPAVLQSSGLYSLSSVVTVPSSSLGTQTYICNVNHKPSNTKVDKKVEPKSCDKTHTCPPCPAPELLGYPSVFLFPPKPKDTLMISRTPEVTCVVVDVSDEDPEVKFNWYVDGVEVHNAKTKPREELYNSTYRVVSVLTVLHQDWLNGKEYKCKVSNKALPKPIEKTISKAKGQPREPQVYTLPPSREEMTKNQVSLTCLVKGFYPSDIAVEWESNGQPENNYKTTPKVLDSDGSFFLYSKLTVDKSRWQQGNVFSCSVMHEALHNHYTQKSLSLSP light: DIVMTQSPATLSLSPGERATLSCTSSQSVYHANWLSWFQQKPGQPPKLLIYWASTLAYGVPSRFSGSGSGTDFTLTISSLQPEDAATYYCAGGYGGGRYAFGQGTKVEIKRTVAAPSVFIFPPSDEQLKSGTASVVCLLNNFYPREAKVQWKVDNALQSGNSQESVTEQDSKDSTYSLSSTLTLSKADYEKHKVYACEVTHQGLSSPVTKSFNRGEC",0.09 fold,8.9 fold,KD fold (SG1 = 1) [7]: 13.6 fold
